± gives the standard deviation of the averaged measurements.

A short description of the data set: total protein half-life in vivo (active degradation + dilution); higher = more stable protein.
[1] abbreviates: E. coli NCM3722 delta-clpP delta-lon delta-hslV, growth: N-lim chemostat, doubling time 6 h.
The mark [2] stands for this setting: E. coli NCM3722 delta-clpP, growth: N-lim chemostat, doubling time 6 h.
Setting [3] is: E. coli NCM3722 delta-lon, growth: N-lim chemostat, doubling time 6 h.
The mark [4] stands for this setting: E. coli NCM3722 delta-smpB, growth: N-lim chemostat, doubling time 6 h.
[5] abbreviates: wild type E. coli NCM3722, growth: C-lim chemostat, doubling time 3 h.
Setting [6] is: wild type E. coli NCM3722, growth: C-lim chemostat, doubling time 6 h.
Setting [7] is: wild type E. coli NCM3722, growth: C-lim chemostat, doubling time 12 h.
Where [8] appears, read: wild type E. coli NCM3722, growth: N-lim chemostat, doubling time 6 h.
[9] abbreviates: wild type E. coli NCM3722, growth: N-lim chemostat, doubling time 12 h.
Setting [10] is: wild type E. coli NCM3722, growth: P-lim chemostat, doubling time 6 h.
Where [11] appears, read: wild type E. coli NCM3722, growth: P-lim chemostat, doubling time 12 h.
The mark [12] stands for this setting: E. coli NCM3722 delta-hslV, growth: N-lim chemostat, doubling time 6 h.

As to “MMIKTRFSRWLTFFTFAAAVALALPAKANTWPLPPAGSRLVGENKFHVVENDGGSLEAIAKKYNVGFLALLQANPGVDPYVPRAGSVLTIPLQTLLPDAPREGIVINIAELRLYYYPPGKNSVTVYPIGIGQLGGDTLTPTMVTTVSDKRANPTWTPTANIRARYKAQGIELPAVVPAGLDNPMGHHAIRLAAYGGVYLLHGTNADFGIGMRVSSGCIRLRDDDIKTLFSQVTPGTKVNIINTPIKVSAEPNGARLVEVHQPLSEKIDDDPQLLPITLNSAMQSFKDAAQTDAEVMQHVMDVRSGMPVDVRRHQVSPQTL”, the “total protein half-life in vivo” value was 5.73 h under setting [1]; 4.84 h under setting [2]; 6.23 ± 1.4 h under setting [3]; 5.56 h under setting [4]; 1.51 ± 0.55 h under setting [5]; 2.85 ± 0.33 h under setting [6]. Moreover, the “total protein half-life in vivo” value by setting is: under setting [7], 4.13 ± 0.68 h; under setting [8], 6.17 h; under setting [9], 10.5 h; under setting [10], 5.17 h; under setting [11], 3.45 h.
On to “MTPLVKDIIMSSTRMPALFLGHGSPMNVLEDNLYTRSWQKLGMTLPRPQAIVVVSAHWFTRGTGVTAMETPPTIHDFGGFPQALYDTHYPAPGSPALAQRLVELLAPIPVTLDKEAWGFDHGSWGVLIKMYPDADIPMVQLSIDSSKPAAWHFEMGRKLAALRDEGIMLVASGNVVHNLRTVKWHGDSSPYPWATSFNEYVKANLTWQGPVEQHPLVNYLDHEGGTLSNPTPEHYLPLLYVLGAWDGQEPITIPVEGIEMGSLSMLSVQIG”, for which the “total protein half-life in vivo” value under setting [2] turned out to be 3.18 h; the “total protein half-life in vivo” value under setting [5] came out at 2.85 h; the “total protein half-life in vivo” value under setting [6] is 5.76 h; the “total protein half-life in vivo” value under setting [7] came out at 11.3 h; the “total protein half-life in vivo” value under setting [8] was 3.76 h; the “total protein half-life in vivo” value under setting [10] turned out to be 5.45 h. The “total protein half-life in vivo” value under setting [11] was found to be 10.5 ± 0.65 h.
Turning to “MRRELAIEFSRVTESAALAGYKWLGRGDKNTADGAAVNAMRIMLNQVNIDGTIVIGEGEIDEAPMLYIGEKVGTGRGDAVDIAVDPIEGTRMTAMGQANALAVLAVGDKGCFLNAPDMYMEKLIVGPGAKGTIDLNLPLADNLRNVAAALGKPLSELTVTILAKPRHDAVIAEMQQLGVRVFAIPDGDVAASILTCMPDSEVDVLYGIGGAPEGVVSAAVIRALDGDMNGRLLARHDVKGDNEENRRIGEQELARCKAMGIEAGKVLRLGDMARSDNVIFSATGITKGDLLEGISRKGNIATTETLLIRGKSRTIRRIQSIHYLDRKDPEMQVHIL [P0A9C9]”, the “total protein half-life in vivo” value under setting [2] was found to be 4.69 ± 0.43 h; the “total protein half-life in vivo” value under setting [12] was determined as 4.84 ± 0.68 h; the “total protein half-life in vivo” value under setting [3] is 4.309 ± 0.04 h; the “total protein half-life in vivo” value under setting [4] is 4.27 ± 0.27 h; the “total protein half-life in vivo” value under setting [5] turned out to be 3.593 ± 0.019 h; the “total protein half-life in vivo” value under setting [6] is 5.39 ± 0.19 h. Besides, the “total protein half-life in vivo” value was 9.84 ± 0.62 h under setting [7]; 4.51 ± 0.52 h under setting [8]; 7.05 ± 0.25 h under setting [9]; 5.75 ± 0.21 h under setting [10]; 12 ± 1.2 h under setting [11].
Turning to “MSESLRIIFAGTPDFAARHLDALLSSGHNVVGVFTQPDRPAGRGKKLMPSPVKVLAEEKGLPVFQPVSLRPQENQQLVAELQADVMVVVAYGLILPKAVLEMPRLGCINVHGSLLPRWRGAAPIQRSLWAGDAETGVTIMQMDVGLDTGDMLYKLSCPITAEDTSGTLYDKLAELGPQGLITTLKQLADGTAKPEVQDETLVTYAEKLSKEEARIDWSLSAAQLERCIRAFNPWPMSWLEIEGQPVKVWKASVIDTATNAAPGTILEANKQGIQVATGDGILNLLSLQPAGKKAMSAQDLLNSRREWFVPGNRLV”, the “total protein half-life in vivo” value is, setting by setting: under setting [1], 5.19 ± 0.35 h; under setting [2], 4.68 ± 0.25 h; under setting [12], 5.38 ± 1 h; under setting [3], 6.55 ± 0.13 h; under setting [4], 4.49 ± 0.29 h; under setting [5], 3.118 ± 0.012 h. Further, the “total protein half-life in vivo” value reads like this: under setting [6], 5.91 ± 0.49 h; under setting [7], 8.28 ± 1.2 h; under setting [8], 4.84 ± 0.38 h; under setting [9], 7.62 ± 0.9 h; under setting [10], 5.62 ± 0.28 h; under setting [11], 10.1 ± 0.96 h.
For the sequence “MGQVLPLVTRQGDRIAIVSGLRTPFARQATAFHGIPAVDLGKMVVGELLARSEIPAEVIEQLVFGQVVQMPEAPNIAREIVLGTGMNVHTDAYSVSRACATSFQAVANVAESLMAGTIRAGIAGGADSSSVLPIGVSKKLARVLVDVNKARTMSQRLKLFSRLRLRDLMPVPPAVAEYSTGLRMGDTAEQMAKTYGITREQQDALAHRSHQRAAQAWSDGKLKEEVMTAFIPPYKQPLVEDNNIRGNSSLADYAKLRPAFDRKHGTVTAANSTPLTDGAAAVILMTESRAKELGLVPLGYLRSYAFTAIDVWQDMLLGPAWSTPLALERAGLTMSDLTLIDMHEAFAAQTLANIQLLGSERFAREALGRAHATGEVDDSKFNVLGGSIAYGHPFAATGARMITQTLHELRRRGGGFGLVTACAAGGLGAAMVLEAE”, the “total protein half-life in vivo” value was 5.81 ± 0.29 h under setting [2]; 5.7 ± 0.78 h under setting [12]; 6.04 ± 0.061 h under setting [3]; 5.43 ± 0.24 h under setting [4]; 2.94 ± 0.14 h under setting [5]; 6.16 ± 0.1 h under setting [6]. The “total protein half-life in vivo” value under setting [7] is 12.3 ± 1.9 h, the “total protein half-life in vivo” value under setting [8] was determined as 6.23 ± 0.13 h, the “total protein half-life in vivo” value under setting [9] was 12 ± 0.41 h and the “total protein half-life in vivo” value under setting [10] was 6.44 ± 0.075 h.
“MYDNLKSLGITNPEEIDRYSLRQEANNDILKIYFQKDKGEFFAKSVKFKYPRQRKTVVADGVGQGYKEVQEISPNLRYIIDELDQICQRDRSEVDLKRKILDDLRHLESVVTNKISEIEADLEKLTRK”: the “total protein half-life in vivo” value runs as follows: under setting [2], 4.32 ± 0.1 h; under setting [12], 4.18 ± 0.52 h; under setting [3], 4.82 ± 0.08 h; under setting [4], 3.61 ± 0.31 h; under setting [5], 3.26 ± 0.19 h; under setting [6], 5.55 ± 0.13 h. Further, the “total protein half-life in vivo” value under setting [7] worked out at 8.4 ± 0.45 h; the “total protein half-life in vivo” value under setting [8] was found to be 3.77 ± 0.094 h; the “total protein half-life in vivo” value under setting [9] was determined as 6.16 ± 0.23 h; the “total protein half-life in vivo” value under setting [10] came out at 5.45 ± 1.6 h; the “total protein half-life in vivo” value under setting [11] amounted to 12 ± 0.17 h.
Take “MLYKGDTLYLDWLEDGIAELVFDAPGSVNKLDTATVASLGEAIGVLEQQSDLKGLLLRSNKAAFIVGADITEFLSLFLVPEEQLSQWLHFANSVFNRLEDLPVPTIAAVNGYALGGGCECVLATDYRLATPDLRIGLPETKLGIMPGFGGSVRMPRMLGADSALEIIAAGKDVGADQALKIGLVDGVVKAEKLVEGAKAVLRQAINGDLDWKAKRQPKLEPLKLSKIEATMSFTIAKGMVAQTAGKHYPAPITAVKTIEAAARFGREEALNLENKSFVPLAHTNEARALVGIFLNDQYVKGKAKKLTKDVETPKQAAVLGAGIMGGGIAYQSAWKGVPVVMKDINDKSLTLGMTEAAKLLNKQLERGKIDGLKLAGVISTIHPTLDYAGFDRVDIVVEAVVENPKVKKAVLAETEQKVRQDTVLASNTSTIPISELANALERPENFCGMHFFNPVHRMPLVEIIRGEKSSDETIAKVVAWASKMGKTPIVVNDCPGFFVNRVLFPYFAGFSQLLRDGADFRKIDKVMEKQFGWPMGPAYLLDVVGIDTAHHAQAVMAAGFPQRMQKDYRDAIDALFDANRFGQKNGLGFWRYKEDSKGKPKKEEDAAVEDLLAEVSQPKRDFSEEEIIARMMIPMVNEVVRCLEEGIIATPAEADMALVYGLGFPPFHGGAFRWLDTLGSAKYLDMAQQYQHLGPLYEVPEGLRNKARHNEPYYPPVEPARPVGDLKTA”: the “total protein half-life in vivo” value reads like this: under setting [1], 4.12 ± 0.27 h; under setting [2], 3.24 ± 0.056 h; under setting [12], 3.02 ± 0.12 h; under setting [3], 3.8 ± 0.82 h; under setting [4], 3.27 ± 0.31 h; under setting [5], 2.93 ± 0.14 h. Moreover, the “total protein half-life in vivo” value was 4.89 ± 0.061 h under setting [6]; 8.047 ± 0.056 h under setting [7]; 3.34 ± 0.46 h under setting [8]; 4.71 ± 0.23 h under setting [9]; 5.3 ± 0.11 h under setting [10]; 9.82 ± 0.77 h under setting [11].
